This note sets out measurements from US20240207464A1 (NIHON MEDI PHYSICS, published 2024).

The assay addresses T1, CD20 (human, UniProt P11836 1-297).
T1 construct: whole, on cells; also called CD20 on Ramos tumor sections (CD20-positive human Burkitt lymphoma-derived cell line)
T1 sequence (looked up): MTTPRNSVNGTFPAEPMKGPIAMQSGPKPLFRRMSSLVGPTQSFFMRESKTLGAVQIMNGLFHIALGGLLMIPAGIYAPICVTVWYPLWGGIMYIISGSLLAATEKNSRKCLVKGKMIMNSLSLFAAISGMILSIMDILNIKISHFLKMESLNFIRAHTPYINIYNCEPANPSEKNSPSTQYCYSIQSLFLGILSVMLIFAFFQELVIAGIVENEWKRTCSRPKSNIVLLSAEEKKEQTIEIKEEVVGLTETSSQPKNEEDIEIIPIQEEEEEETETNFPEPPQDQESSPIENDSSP
The assay can be described thus: in vitro autoradiography on frozen Ramos and CCRF-CEM tumor sections. How it is done:
Ramos cells of a CD20-positive human Burkitt lymphoma-derived cell line purchased from ATCC (American Type Culture Collection), and CCRF-CEM cells of a CD20-negative human acute lymphoblastic leukemia/T lymphocyte-like cell line were administered subcutaneously to the flanks of female BALB/c nu/nu mice (manufactured by Charles River Laboratories Japan, Inc.) at 5×10⁶ cells to prepare tumor-bearing mice. Thereafter, Ramos tumor and CCRF-CEM tumor were excised and embedded in Tissue-Tek O.C.T. Compound (Sakura Finetek Japan Co., Ltd.) to prepare frozen sections. The radioconjugates obtained in Example 1 and Comparative Example 1 were added to 1% bovine serum albumin-containing PBS each at 1 kBq/mL, and Ramos tumor section and CCRF-CEM tumor section were immersed therein. After contacting the sections with the imaging plate, they were read with a scanner-type image analyzer (Typhoon FLA 7000 manufactured by GE Healthcare Japan) to evaluate the level of radioactivity bound to the sections.

B1: radioconjugate (Example 3): conjugate with rituximab by using 89Zr-labeled DOTAGA-DBCO (antibody, human IgG1, kappa)
heavy: not shown
light: QIVLSQSPAILSASPGEKVTMTCRASSSVSYIHWFQQKPGSSPKPWIYATSNLASGVPVRFSGSGSGTSYSLTISRVEAEDAATYYCQQWTSNPPTFGGGTKLEIKRTVAAPSVFIFPPSDEQLKSGTASVVCLLNNFYPREAKVQWKVDNALQSGNSQESVTEQDSKDSTYSLSSTLTLSKADYEKHKVYACEVTHQGLSSPVTKSFNRGEC
peptide: not shown
modifications: lysine side chain modified with R1 (crosslinker, bonded to the antibody Fc); disulfide between the two cysteines; N-terminal ethyl azide via diglycolic acid and eight PEGs, clicked to DBCO of the 89Zr-DOTAGA-DBCO complex; Fc region site-specifically modified by the peptide of SEQ ID NO: 17 through the crosslinker on its lysine; the peptide carries 89Zr-chelated DOTAGA-DBCO through a click reaction
notes: also called 89Zr complex-labeled antibody
On to B1, for which the binding result is listed as “binds”.

B2: radioconjugate (Comparative Example 2): conjugate with rituximab by using 89Zr-labeled DOTA-DBCO (antibody, human IgG1, kappa)
heavy: not shown
light: B1 light
peptide: not shown
modifications: lysine side chain modified with R1 (crosslinker, bonded to the antibody Fc); disulfide between the two cysteines; N-terminal ethyl azide via diglycolic acid and eight PEGs, clicked to DBCO of the 89Zr-DOTA-DBCO complex; Fc region site-specifically modified by the peptide of SEQ ID NO: 17 through the crosslinker on its lysine; the peptide carries 89Zr-chelated DOTA-DBCO through a click reaction
On to B2, for which the binding result is reported as “binds”.
